According to patent US20100003232:

Columns and labels:
[1] = target: β-Amyloid (1-40) (UniProt P05067)
[2] = target: secreted ectodomain of the amyloid precursor protein derivative generated by α-secretase (APPsα) (UniProt P05067)
[3] = target: amyloid-β peptide (1-42) (UniProt P05067)
[4] = target: Aβ produced naturally by APPswe.3 cells (secreted Aβ in conditioned medium) (UniProt P05067)
[5] = target: Human insulin (UniProt P01308)
UniProt P01308, sequence (P01308 whole entry, looked up): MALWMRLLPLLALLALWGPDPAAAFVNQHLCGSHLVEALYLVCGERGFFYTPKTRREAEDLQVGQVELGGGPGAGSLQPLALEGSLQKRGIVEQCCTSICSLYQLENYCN

Row | Substance | Hill coefficient [1] | Kcat [1] | degradation in conditioned medium (Western blot) [2] | degradation followed by MALDI-TOF [3] | t½ for the degradation of secreted Aβ [4] | degradation followed by MALDI-TOF [5] | Km [1]
1 | IDE D426C/K899C double cysteine mutant | 2.3 | 20 s⁻¹ | IDE had no effect on the secreted ectodomain of the amyloid precursor protein derivative generated by α-secretase (APPsα) | all three double cysteine IDE mutants degraded both insulin and Aβ(1-42) more effectively than wild-type IDE | that by the IDE D426C/K899C mutant was 2 minutes | all three double cysteine IDE mutants degraded both insulin and Aβ(1-42) more effectively than wild-type IDE | 
2 | wild type human insulin-degrading enzyme (IDE) | 2.9 | 8 s⁻¹ | IDE had no effect on the secreted ectodomain of the amyloid precursor protein derivative generated by α-secretase (APPsα) |  | The estimated t½ for the degradation of secreted Aβ by wild-type IDE was 11 minutes |  | 25 µM
